In PMC12914960, “Repurposing a detrimental antibody epitope as targeted therapeutics for sepsis and rheumatoid arthritis” (Military Medical Research, 2026):
Where no end group is shown, it is not given here. [ ]: non-standard residue; d: D form. Nle = CCCC[C@H](N)C(=O)O

Assays:
Water solubility = format: physicochemical; details: qualitative, text in Fig. 1d
[1] = system: CLP-induced sepsis in BALB/c mice; assay: Septic survival after cecal ligation and puncture (CLP); format: in vivo, mouse; details: P2 5.0 mg/kg twice at 2 h and 24 h post-CLP, i.p.
Method: Experimental sepsis was induced in BALB/c mice via CLP as previously described. […] The animals were randomly assigned to the control vehicle (n = 10 or n = 20) or experimental groups (n = 10 or n = 20). P2 (5.0 mg/kg), P2-1 (0.1 mg/kg or 1.0 mg/kg), or tetranectin N-terminal deletion mutant (ΔTN) (1.0 mg/kg) were administered intraperitoneally (i.p.) at the indicated time points, and survival rates were monitored. To elucidate P2-1’s protective mechanisms, a separate group of BALB/c mice (n = 4) underwent CLP and received P2-1 (1.0 mg/kg) at 2 h and 20 h post-CLP. At 24 h post-CLP, the animals were euthanized, blood was collected, and serum cytokines and chemokines were measured via murine cytokine antibody arrays as previously described. More details are presented in Additional file 1: Methods.
For these preclinical studies, animals were random ly assigned to experimental groups and treated with P2, P2-1, or a pCTS-L-neutralizing mAb2 according to the indicated dosing regimens. Outcomes, including septic survival rates, arthritis severity, pain sensitivity, and joint tissue histology scores, were collected under blinded experiment al conditions. The study d esign and sample si zes fo r each exp eriment are d etailed in the figure legends. No data, including outlier values, were excluded. For skewed data, outliers were defined via the interquartile range (IQR) method as any value below Q 1 –(1.5 × IQR) or above Q 3 + (1.5 × IQR). For normally distributed data, outliers were defined via the Z-score method as any value with an absolute Z-score greater than 2 or 3. The primary data are reported in Additional file 4. All the reagent sources are listed in Additional file 1: Table S1 .
Cecal ligation and puncture (CLP) sepsis model […]
screening. c Expression and purification of recombinant full-length human TN (residues 1 – 181) and its N-terminal deletion mutant ( ΔTN, residues 45 – 181). […] Recombinant Δ TN was given intraperitoneally at 24 h and 48 h post-C L P, and animal survival rates were monitored. *P < 0.0 5. […]

[2] = target: T1, Recombinant human high mobility group box 1 (HMGB1) (human, UniProt P09429 1-215); assay: SPR; Nicoya OpenSPR; recombinant human HMGB1 immobilized on a carboxyl sensor chip, P2-1 flowed over at various concentrations in HBS-P buffer; 1:1 interaction model; three independent experiments; details: both partners purified
T1 construct: high mobility group box 1 (HMGB1); the SPR methods say recombinant human HMGB1; the SPR paragraph says human; The protein on the chip may be that rat construct
T1 sequence (looked up): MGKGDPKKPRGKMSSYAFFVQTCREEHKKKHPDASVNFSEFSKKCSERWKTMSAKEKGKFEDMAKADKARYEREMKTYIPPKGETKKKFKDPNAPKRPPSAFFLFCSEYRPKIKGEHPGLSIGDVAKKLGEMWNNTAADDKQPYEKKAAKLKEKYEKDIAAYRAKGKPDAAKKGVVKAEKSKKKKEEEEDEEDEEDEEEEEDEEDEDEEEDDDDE

[3] = system: CLP-induced sepsis in BALB/c mice; details: text in Fig. 1b; mAb8 22% to 77%, mAb9 80% to 50%; ref [21]; cited from earlier work
[4] = system: synthetic TN peptides (P1 – P10); assay: Epitope mapping of mAb8 and mAb9 by dot blotting against TN peptides P1 – P10; format: binding, human; details: 10 synthesized TN peptides, mAb 1.0 µg/ml, chemiluminescence
Method: remove unbound protein and then fixed with 4% paraformaldehyde for 20 min at room temperature.
Coverslips were mounted onto slides via Vectashield Mounting Medium for fluorescen ce with DAPI (Cat.
#H-1200, Vector Laborat ories, Inc., Newark, CA, USA) for nuclear counterstaining. Endocytic uptake of Alexa Fluor 555- labeled HMGB1 (red) was visualized via the Olympus IX51 inverted fluorescence & phase contrast tissue culture microscope. Cellular HMGB1 uptake was quantified by measuring the mean fluorescen ce intensity of the Alex a- 555- labeled HMGB1 protein within multiple representative cells via ImageJ an alysis software.
Antibody sequencing and antigen contact structure (ACS) prediction
Total RNA was extracted from mAb8 and mAb9 hybridoma cells via TRIzol (Invitrogen, Austin, TX, USA), and cDNA was synthesized via reverse transcriptase. […]
Corresponding to the C-terminal portion of the TN protein (Additional file 1: Fig. S4a) , a library of 10 synthetic peptides (P1 – P10, Additional file 1: Fig. S4b ) was spotted (0.1 μ g in 2.5 μ l) onto nitrocellulose membranes (Cat No. 88013, Thermo Scientific, Waltham, MA, USA ). […] After washing, the membranes were incubated with HRP-conjugated goat anti-mouse IgG (Jackson ImmunoResearch, West Grove, PA, USA), and signals were detected via chemiluminescence as previously described [ 1].

[5] = system: Differentiated human macrophages; details: TN; ref [21]; cited from earlier work
Description: Crucially, our findings reveal a striking dichotomy in the biological effects of full-length TN and its derived peptide, P2-1, on HMGB1-mediated detrimental macrophage responses. […] We propose that full-length TN, when complexed with HMGB1, may engage unidentified macrophage surface receptor(s), thereby facilitating receptor-mediated endocytosis of TN/HMGB1 complexes and ...

human PBMCs [6] = details: TN; ref [21]; cited from earlier work
Description: To validate these RNA-seq findings, we quantified HMGB1-induced cytokine/chemokine protein levels using cytokine antibody arrays. Consistent with our RNA-seq data, HMGB1 stimulation led to a significant increase in the protein levels of various cytokines (e.g., TNF, IL-6, and IL-10) and chemokines (e.g., CXCL5/ENA-78, CXCL1/GRO-α, CXCL8/IL-8, CCL2/MCP-1, and CCL7/MCP-3) in human PBMCs (Fig. 6b), confirming its potent immunomodulating activities.

[7] = system: Differentiated human macrophages; details: full-length TN; ref [21]; cited from earlier work
Description: To investigate P2-1’s effect on HMGB1 endocytosis, differentiated human macrophages were exposed to Alexa Fluor 555-labeled HMGB1 under various conditions (Fig. 5d).

human PBMCs [8] = assay: RNA-seq of HMGB1-stimulated PBMCs; format: cell-based
Method: Total RNA was isolated from human PBMCs (n = 6 biological replicates) stimulated with HMGB1 in the absence or presence of P2-1 (5.0 or 10.0 µg/ml) via the RNeasy Mini Kit (Qiagen, Germantown, MD, USA) according to the manufacturer’s instructions. cDNA libraries were prepared using the TruSeq RNA Library Prep Kit v2 (Illumina, San Diego, CA, USA) and sequenced on an Illumina NovaSeq 6000 platform to generate 100 bp paired-end reads. Gene counts were quantified via StringTie and DESeq2 for differential gene expression analysis. Volcano plots and heatmaps were generated via ggplot2 and pheatmap packages in R, respectively. Genes with an adjusted P-value < 0.05 and a |log2 fold change|> 1 were considered differentially expressed. […]
custom-synthesized (Gen Script, Piscataway, NJ, USA). P2 -1 was engineered to: i) increase solubility by removing a w ater-insoluble phenylalanine (F) at the C-terminal residue 70 and introducing a water-soluble threonine (T) at N-t erminal residue 54; and ii) reduce oxidative susceptibility by substituting methionine (M) with norleucine (Nle) and cysteine (C) with serine (S), respectively. The pCTS -L-neutralizing mAbs (mAb2) and TN-neutrali zing mAbs (mAb8 and m Ab9) were generated in BALB/c and C57BL/6 m ice as previously described .
RNA sequencing (RNA- Seq) and bioinformatics analysis
Total RNA was isolated from human PBMCs (n= 6 biological replicates) stimulated with HMGB1 in the absence o r pres ence o f P2-1 (5.0 or 10.0 µg/ml) via the RNeasy Mini Kit (Qiagen, Germantown, MD, USA) according to the manufacturer ’s instructions. RNA quantity and quality were assessed via a NanoDrop spectrophotometer, which requires A260/280 and A260/230 ratios to both be > 1.8. Samples meeting these criteria were then sent to two sequencing facilities, where RNA integrity was further confirmed via an Agilent Bioanalyzer. Only samples with an RNA integrity number of 8 or above were accepted for RNA sequencing. cDNA libraries were prepared using the TruSeq RNA Library Prep Kit v2 (Illumina, San Diego, CA, USA) and sequenced on an Illumina NovaSeq 6000 platform to generat e 100 bp paired-end reads. Our data filtering criteria adhered to industry best practices to ensure data quality.
First, raw sequencing reads underwent quality assessment with FastQC, followed by adapter and low-quality nucleotide trimming using Trimmomatic v.0.36. Subsequently, the high- quality reads wer e aligned to the Homo sapiens GRCh38 reference genome using the STAR aligner v.2.5.2b. Following alignment, PCR duplicates were identified and removed with Picard tools to mitigate amplification bias. Before differential expression an alysis, the gene count matrix was filtered to retain only genes with a count-per-million (CPM) > 1 in at least three samples (n = 3, representing our smallest experimental group). This rigorous procedure ensured that analysis was perfo rmed on a robust set of reliably expressed gen es. Finally, gene counts were quantified via StringTie and DESeq2 for differential gene expression analysis. Volcano

KVHMKCFLAFQTKTF [P2]
Water solubility (Water solubility): Poor water solubility
septic survival, in words [1]: significantly increased survival rates in both male and female mice

B1: P2-1 peptide, water-soluble derivative of the tetranectin P2 epitope peptide (peptide)
chain: TKVH[Nle]KSFLAFQTKT
Kd [2]: 16.9 nM

B2: mAb8: protective anti-tetranectin monoclonal antibody (antibody, V domains shown)
VH: DVNLVESGGGLVKLGGSLKLSCADSGFTFSSYYMSWVRQTPEKRLELVAAINSNGGRTYYPDTVKGRFTISRDNAKNTLYLQMSSLKSEDTALYYCARQGKNGLDYWGQGTSVTVSS
VL: DIQMTQTTSSLSASLGDRVTISCRASQDISNHLNWYQQKPDGTIKLLIYYTSRLHSGVPSRFSGSGSGTDFSLSISNLEQEDIATYFCQQGKTLPPTFGGGTKLEIK
survival in sepsis [3]: 77%
epitope peptide recognised (dot blot) [4]: targeted P5

B3: TN: full-length human tetranectin (protein, UniProt P05452 1-202, looked up)
chain: MELWGAYLLLCLFSLLTQVTTEPPTQKPKKIVNAKKDVVNTKMFEELKSRLDTLAQEVALLKEQQALQTVCLKGTKVHMKCFLAFTQTKTFHEASEDCISRGGTLGTPQTGSENDALYEYLRQSVGNEAEIWLGLNDMAAEGTWVDMTGARIAYKNWETEITAQPDGGKTENCAVLSGAANGKWFDKRCRDQLPYICQFGIV
modifications: full-length
notes: full-length human tetranectin
HMGB1 endocytosis and macrophage pyroptosis, in words [5]: enhances HMGB1 endocytosis and subsequent macrophage pyroptosis
HMGB1-induced cytokines/chemokines, in words (human PBMCs [6]): did not affect HMGB1-induced cytokines (e.g., IL-6) or chemokines (e.g., MCP-1)
HMGB1 cellular uptake, in words [7]: significantly increased HMGB1 uptake

B4: HMGB1: recombinant HMGB1 protein used as stimulus (protein)
chain: T1 sequence (looked up)
Log2 Fold change (human PBMCs [8]; CXCL5 (ENA-78), P-adjust 3.97E-166): 9.951
Log2 Fold change (human PBMCs [8]; CXCL8 (IL-8), P-adjust 1.17E-133): 5.985
Ctsl mRNA upregulation (human PBMCs [8]; HMGB1-only group, human PBMCs): 3.4 ± 0.3 -fold
Log2 Fold change (human PBMCs [8]; IL1B (IL-1β), P-adjust 1.29E-157): 8.223
Log2 Fold change (human PBMCs [8]; MT1G (Metallothionein-1G), P-adjust 9.98E-141): 9.377
